Broadly, the stoichiometry N is a count of units in the complex or per binding partner.

Here are results for two molecules from article PMC6648325.

Details in all cases: remark: other sources report otherwise
Assay [1] has as its target T1, Cys106-oxidized DJ-1 recombinant protein (human), Q99497.
T1 chain: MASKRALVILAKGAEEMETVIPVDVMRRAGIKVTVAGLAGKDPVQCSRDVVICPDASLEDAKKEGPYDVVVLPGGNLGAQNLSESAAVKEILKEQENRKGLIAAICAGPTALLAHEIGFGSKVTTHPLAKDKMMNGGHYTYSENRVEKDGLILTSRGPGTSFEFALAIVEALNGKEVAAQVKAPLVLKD
Kind of assay: high-speed atomic force microscopy.

The target of assay [2] is T1, Cys106-oxidized DJ-1 recombinant …. Kind of assay: SDS-PAGE of HMW bands.
The target is the same in assay [3]. Kind of assay: SEC. A general note: SEC sorts molecules by how far they enter the pores of the column.
The target in assay [4] is T2, DJ-1 recombinant protein (human), Q99497.
T2 chain: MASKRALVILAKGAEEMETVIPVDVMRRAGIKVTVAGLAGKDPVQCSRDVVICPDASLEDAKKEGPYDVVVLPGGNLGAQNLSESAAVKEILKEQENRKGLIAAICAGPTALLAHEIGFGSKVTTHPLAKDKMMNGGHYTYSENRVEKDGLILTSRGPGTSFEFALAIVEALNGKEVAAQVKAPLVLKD
Nature of the assay: high-speed atomic force microscopy.

The target is the same in assay [5]. Nature of the assay: SEC.

Values joined by “and” are separate entries in the source; they are usually repeats but may differ in a detail not shown here. Identical values can stand only once.

B1: Cys106-oxidized DJ-1 recombinant protein, Q99497 1-189 (natural protein)
chain: MASKRALVILAKGAEEMETVIPVDVMRRAGIKVTVAGLAGKDPVQCSRDVVICPDASLEDAKKEGPYDVVVLPGGNLGAQNLSESAAVKEILKEQENRKGLIAAICAGPTALLAHEIGFGSKVTTHPLAKDKMMNGGHYTYSENRVEKDGLILTSRGPGTSFEFALAIVEALNGKEVAAQVKAPLVLKD
Consider B1, for which the stoichiometry N was 4 and 6 in assay [1]; 2 and 4 in assay [2]; 2 in assay [3].

B2: DJ-1 recombinant protein, Q99497 1-189 (natural protein)
chain: MASKRALVILAKGAEEMETVIPVDVMRRAGIKVTVAGLAGKDPVQCSRDVVICPDASLEDAKKEGPYDVVVLPGGNLGAQNLSESAAVKEILKEQENRKGLIAAICAGPTALLAHEIGFGSKVTTHPLAKDKMMNGGHYTYSENRVEKDGLILTSRGPGTSFEFALAIVEALNGKEVAAQVKAPLVLKD
With B2, the stoichiometry N in assay [4] and in assay [5] was 2 throughout.
